# Reference: patent US20120238493A1 (INDIANA UNIVERSITY RESEARCH AND TECHNOLOGY, published 2012)
# Bridges are numbered along the chain shown (N, C = ends). Where no end group is shown, it is not given here. Side-chain parts run from the residue outwards. [ ]: non-standard residue; d: D form. PEG40kDa = 40 kDa polyethylene glycol attached; Aib = CC(C)(N)C(=O)O
# T1: GIP receptor (UniProt P48546 22-466, limits assumed)
# T1 sequence (looked up): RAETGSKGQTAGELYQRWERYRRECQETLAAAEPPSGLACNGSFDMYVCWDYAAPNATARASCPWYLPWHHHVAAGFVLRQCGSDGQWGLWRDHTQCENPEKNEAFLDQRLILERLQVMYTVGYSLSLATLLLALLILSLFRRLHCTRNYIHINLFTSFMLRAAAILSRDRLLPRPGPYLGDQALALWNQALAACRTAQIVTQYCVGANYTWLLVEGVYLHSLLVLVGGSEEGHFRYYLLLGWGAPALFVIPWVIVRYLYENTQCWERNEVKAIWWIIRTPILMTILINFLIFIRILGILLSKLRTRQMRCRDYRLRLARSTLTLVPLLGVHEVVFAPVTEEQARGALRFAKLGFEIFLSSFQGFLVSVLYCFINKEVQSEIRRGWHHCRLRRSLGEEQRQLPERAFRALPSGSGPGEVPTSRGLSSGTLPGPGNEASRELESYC
# B1: mt-218 (SEQ ID NO: 20) (peptide)
# peptide: YXEGTFISDYSIAMDKIHQQDFVNWLLAQKGKKNWLKHNITQ
# modifications: not fully specified; AIB at position 2; C-terminal amide; Glu16-Lys20 lactam in some Table 3 peptides, absent in others (which ones is not stated)
# Target: T1, GIP receptor
# Experiment: cell-based or functional assay
Binder,EC50 (cAMP reporter) [nM],relative activity (to native hormone) [%]
Y[Aib]PGTFISDYSIAMDKIHQQDFVNWLLAQKGKKNWLKHNITQ-NH2 (not fully specified) [mt-219 (SEQ ID NO: 21)],6.17,0.31
Y[Aib]QGTFTSDYSIYLDEQAAKEFVNWLLAGGPSSGAPPPSK-NH2 (not fully specified) [mt-227 (SEQ ID NO: 25)],1.32,–
Y[Aib]PGTFISDYSIAMDKIHQQDFVCWLLAQKGKKNWLKHNITQ-NH2 (not fully specified) [mt-226 (SEQ ID NO: 24)],1.47,–
Y[Aib]EGTFISDYSIAMDKIHQQDFVCWLLAQKGKKNWLKHNITQ-NH2 (not fully specified) [mt-220 (SEQ ID NO: 22)],10.3,0.19
B1,14.3,0.13
Y[Aib]PGTFISDYSIAMDKIHQQDFVC(PEG40kDa)WLLAQKGKKNWLKHNITQ-NH2 (not fully specified) [mt-228 (SEQ ID NO: 26)],2.27,–
Y[Aib]QGTFTSDYSIYLDEQAAKEFVNWLLAGGPSSGAPPPSK([Ala-Cys(PEG 40 kDa)-Ac])-NH2 (lactam 16-20) [mt-225 (SEQ ID NO: 23)],1.9,–

# Target: GLP-1 receptor (UniProt P43220 24-463, limits assumed)
# Experiment: cell-based or functional assay
Binder,EC50 (cAMP reporter) [nM],relative activity (to native hormone) [%]
Y[Aib]PGTFISDYSIAMDKIHQQDFVNWLLAQKGKKNWLKHNITQ-NH2 (not fully specified) [mt-219 (SEQ ID NO: 21)],0.151,16.6
Y[Aib]QGTFTSDYSIYLDEQAAKEFVNWLLAGGPSSGAPPPSK-NH2 (not fully specified) [mt-227 (SEQ ID NO: 25)],0.08,–
Y[Aib]PGTFISDYSIAMDKIHQQDFVCWLLAQKGKKNWLKHNITQ-NH2 (not fully specified) [mt-226 (SEQ ID NO: 24)],0.097,–
Y[Aib]EGTFISDYSIAMDKIHQQDFVCWLLAQKGKKNWLKHNITQ-NH2 (not fully specified) [mt-220 (SEQ ID NO: 22)],0.18,13.9
B1,0.338,7.4
Y[Aib]PGTFISDYSIAMDKIHQQDFVC(PEG40kDa)WLLAQKGKKNWLKHNITQ-NH2 (not fully specified) [mt-228 (SEQ ID NO: 26)],0.146,–
Y[Aib]QGTFTSDYSIYLDEQAAKEFVNWLLAGGPSSGAPPPSK([Ala-Cys(PEG 40 kDa)-Ac])-NH2 (lactam 16-20) [mt-225 (SEQ ID NO: 23)],0.098,–

# Target: glucagon receptor (UniProt P47871 26-477, limits assumed)
# Sequence (P47871 26-477 limits assumed): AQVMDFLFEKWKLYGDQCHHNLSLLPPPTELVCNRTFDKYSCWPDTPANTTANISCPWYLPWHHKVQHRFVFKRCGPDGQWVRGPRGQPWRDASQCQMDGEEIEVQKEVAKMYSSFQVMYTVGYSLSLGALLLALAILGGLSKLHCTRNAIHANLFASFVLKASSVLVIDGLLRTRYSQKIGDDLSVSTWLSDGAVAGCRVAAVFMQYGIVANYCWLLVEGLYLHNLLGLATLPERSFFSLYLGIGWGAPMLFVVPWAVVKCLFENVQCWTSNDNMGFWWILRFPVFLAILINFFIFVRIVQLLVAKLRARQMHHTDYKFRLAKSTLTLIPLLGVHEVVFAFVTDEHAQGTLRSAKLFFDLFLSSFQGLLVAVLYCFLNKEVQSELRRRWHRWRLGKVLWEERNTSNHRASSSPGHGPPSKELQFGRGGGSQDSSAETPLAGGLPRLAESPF
# Experiment: cell-based or functional assay
Binder,EC50 (cAMP reporter) [nM],relative activity (to native hormone) [%]
Y[Aib]PGTFISDYSIAMDKIHQQDFVNWLLAQKGKKNWLKHNITQ-NH2 (not fully specified) [mt-219 (SEQ ID NO: 21)],17.6,0.65
Y[Aib]QGTFTSDYSIYLDEQAAKEFVNWLLAGGPSSGAPPPSK-NH2 (not fully specified) [mt-227 (SEQ ID NO: 25)],4.24,–
Y[Aib]PGTFISDYSIAMDKIHQQDFVCWLLAQKGKKNWLKHNITQ-NH2 (not fully specified) [mt-226 (SEQ ID NO: 24)],3.46,–
Y[Aib]EGTFISDYSIAMDKIHQQDFVCWLLAQKGKKNWLKHNITQ-NH2 (not fully specified) [mt-220 (SEQ ID NO: 22)],9.67,1.18
B1,16.3,0.7
Y[Aib]PGTFISDYSIAMDKIHQQDFVC(PEG40kDa)WLLAQKGKKNWLKHNITQ-NH2 (not fully specified) [mt-228 (SEQ ID NO: 26)],5.36,–
Y[Aib]QGTFTSDYSIYLDEQAAKEFVNWLLAGGPSSGAPPPSK([Ala-Cys(PEG 40 kDa)-Ac])-NH2 (lactam 16-20) [mt-225 (SEQ ID NO: 23)],2.71,–
